PMC7661038, “Dot1l interacts with Zc3h10 to activate Ucp1 and other thermogenic genes” (eLife, 2020)

Biological target: T1, Flag-Zc3h10 (mouse, UniProt Q8R205 1-435)
T1 sequence (looked up): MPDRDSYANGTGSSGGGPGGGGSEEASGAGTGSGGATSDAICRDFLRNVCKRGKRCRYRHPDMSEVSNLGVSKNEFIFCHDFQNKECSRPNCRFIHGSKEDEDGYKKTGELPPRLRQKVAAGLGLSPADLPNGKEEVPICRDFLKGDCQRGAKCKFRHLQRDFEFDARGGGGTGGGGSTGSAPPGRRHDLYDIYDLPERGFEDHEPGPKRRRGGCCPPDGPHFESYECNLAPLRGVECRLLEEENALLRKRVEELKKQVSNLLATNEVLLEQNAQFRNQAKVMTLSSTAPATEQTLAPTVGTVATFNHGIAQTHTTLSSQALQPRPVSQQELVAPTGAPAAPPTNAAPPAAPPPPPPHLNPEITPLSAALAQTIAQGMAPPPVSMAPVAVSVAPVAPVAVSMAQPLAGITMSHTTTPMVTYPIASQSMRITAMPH
Assay: cell-based or functional assay

B1: HA-Dot1l (enzyme, mouse, UniProt Q6XZL8 1-1540, looked up)
chain: MGEKLELRLKSPVGAEPAVYPWPLPVYDKHHDAAHEIIETIRWVCEEIPDLKLAMENYVLIDYDTKSFESMQRLCDKYNRAIDSIHQLWKGTTQPMKLNTRPSNGLLRHILQQVYNHSVTDPEKLNNYEPFSPEVYGETSFDLVAQMIDEIKMTEDDLFVDLGSGVGQVVLQVAAATNCKHHYGVEKADIPAKYAETMDREFRKWMKWYGKKHAEYTLERGDFLSEEWRERIANTSVIFVNNFAFGPEVDHQLKERFANMKEGGRIVSSKPFAPLNFRINSRNLSDIGTIMRVVELSPLKGSVSWTGKPVSYYLHTIDRTILENYFSSLKNPKLREEQEAARRRQQRENKSNATTPTKVPESKAAATEAPADSGAEEEKSGVATVKKPSPSKARKKKLNKKGRKMAGRKRGRPKKMSAASAERKSKKSQSTLDLLHSPPPAPPSASPQDAYRAPHSPFYQLPPSTQLHSPNPLLVAPTPPALQKLLESFRIQYLQFLAYTKTPQYKANLQQLLDQEKEKNTQLLGTAQQLFGHCQAQKEEIRRLFQQKLDELGVKALTYNDLIQAQKEISAHNQQLREQSEQLEKDNSELRSQSLRLLRARCEELRLDWSTLSLENLRKEKQALRSQISEKQRHCLELQISIVELEKTQRQQELLQLKSCVPPDDALSLHLRGKGALGRELEADAGRLRLELDCAKISLPHLSSMSPELSMNGHAASYELCNAASRPSSKQNTPQYLASPLDQEVVPCTPSHSGRPRLEKLSGLALPDYTRLSPAKIVLRRHLSQDHTGASKAATSEPHPRPEHPKESSLPYQSPGLSNSMKLSPQDPPLASPATSPLTSEKGSEKGVKERAYSSHGETITSLPVSIPLSTVQPNKLPVSIPLASVVLPSRAERARSTPSPVPQPRDSSATLEKQTGASAHGAGGAGAGSRSLAVAPTGFYAGSVAISGALASSPAPLASGMESAVFDESSGPSSLFATMGSRSTPPQHPPLLSQSRNSGPASPAHQLTASPRLSVTTQGSLPDTSKGELPSDPAFSDPESEAKRRIVFSISVGASSKQSPSTRHSPLTSGTRGDCVQSHGQDSRKRSRRKRASAGTPSLSTGVSPKRRALPTVAGLFTQSSGSPLNLNSMVSNINQPLEITAISSPESSLKSSPTPYQDHDQPPVLRKERPLGLTNGAHYSPLTSDEEPGSEDEPSSARIERKIATISLESKSPPKTLENGGGLVGRKSAPSSEPINSSKWKSTFSPISDLGLAKAVDSPLQAGSALSHSPLFSFRPSLEEPAAEAKLPTHPRKSFAGSLGAAEGPSPGTNPPNGLAFSGGLAADLGLHSFNDGASLSHKGPDVTGLSASLSFPSQRGKDSTTEANPFLSRRQPEGLGGLKGEGNANKESGESLPLCGPSDKASLPHGSRASKGRDRELDFKGGHNLFISAAAVPPGGLLGGPGLVTVASSAGSATPTAQAPRPFLSTFAPGPQFTLGPMSLQANLGSVAGSSVLQSLFSTVPAAAGLVHVSSTATRLTNSHTMGSFSSGVAGGTVGGN
Ucp1 promoter activity, luciferase reporter (−5.5 kb Ucp1-Luc) in HEK293 cells cotransfected with Zc3h10 and Dot1l, against empty vector control (Zc3h10 alone over 3-fold; Dot1l alone no activation): 11 fold
